Experimental data reported in patent US7820412.

Tested on: MutS (MBP-MutS-H6 fusion) (Thermus aquaticus)
Assay: pulldown
Settings: MutS selectivity factor M estimated by model from consensus shuffling error rates; 20 mM Tris-HCl pH 7.8, 10 mM NaCl, 5 mM MgCl2, 1 mM DTT, 5% glycerol, room …

re-hybridized GFPuv fragments (average 150 bp) containing synthesis-error mismatches
binding signal (fold selectivity): 2.2
